# In patent US20260232827A1 (Zymeworks, published 2026):
# B1: v22277 (palivizumab, anti-RSV negative control, heterodimeric Fc) (antibody, human IgG1, kappa)
# heavy 1: GQVTLRESGPALVKPTQTLTLTCTFSGFSLSTSGMSVGWIRQPPGKALEWLADIWWDDKKDYNPSLKSRLTISKDTSKNQVVLKVTNMDPADTATYYCARSMITNWYFDVWGAGTTVTVSSASTKGPSVFPLAPSSKSTSGGTAALGCLVKDYFPEPVTVSWNSGALTSGVHTFPAVLQSSGLYSLSSVVTVPSSSLGTQTYICNVNHKPSNTKVDKKVEPKSCDKTHTCPPCPAPELLGGPSVFLFPPKPKDTLMISRTPEVTCVVVDVSHEDPEVKFNWYVDGVEVHNAKTKPREEQYNSTYRVVSVLTVLHQDWLNGKEYKCKVSNKALPAPIEKTISKAKGQPREPQVYVYPPSRDELTKNQVSLTCLVKGFYPSDIAVEWESNGQPENNYKTTPPVLDSDGSFALVSKLTVDKSRWQQGNVFSCSVMHEALHNHYTQKSLSLSPG
# heavy 2: not shown
# light: GDIQMTQSPSTLSASVGDRVTITCKSQLSVGYMHWYQQKPGKAPKLLIYDTSKLASGVPSRFSGSGSGTEFTLTISSLQPDDFATYYCFQGSGYPFTFGGGTKLEIKRTVAAPSVFIFPPSDEQLKSGTASVVCLLNNFYPREAKVQWKVDNALQSGNSQESVTEQDSKDSTYSLSSTLTLSKADYEKHKVYACEVTHQGLSSPVTKSFNRGEC
# notes: also called neg control
# B2: v38591 (humanized anti-NaPi2b antibody, wild-type Fc) (antibody, human IgG1, kappa)
# heavy: not shown
# light: DVQMTQSPSSLSASVGDRVTITCRASQDVYSYLNWYQQKPGKAVKLLIYYTSRLQSGVPSRFSGSGSGTDYTLTISSLQPEDFATYYCQQYNIFPWTFGQGTKLEIKRTVAAPSVFIFPPSDEQLKSGTASVVCLLNNFYPREAKVQWKVDNALQSGNSQESVTEQDSKDSTYSLSSTLTLSKADYEKHKVYACEVTHQGLSSPVTKSFNRGEC
# notes: also called v38591 Wild-type; H1L2
# B3: v18992 (MX35), reference anti-NaPi2b antibody (antibody, human IgG1, kappa)
# heavy 1: GQVQLVQSGAEVVKPGASVKMSCKASGYTFTGYNIHWVKQAPGQGLEWIGAIYPGNGDTSYKQKFRGRATLTADTSTSTVYMELSSLRSEDSAVYYCARGETARATFAYWGQGTLVTVSSASTKGPSVFPLAPSSKSTSGGTAALGCLVKDYFPEPVTVSWNSGALTSGVHTFPAVLQSSGLYSLSSVVTVPSSSLGTQTYICNVNHKPSNTKVDKKVEPKSCDKTHTCPPCPAPELLGGPSVFLFPPKPKDTLMISRTPEVTCVVVDVSHEDPEVKFNWYVDGVEVHNAKTKPREEQYNSTYRVVSVLTVLHQDWLNGKEYKCKVSNKALPAPIEKTISKAKGQPREPQVYVYPPSRDELTKNQVSLTCLVKGFYPSDIAVEWESNGQPENNYKTTPPVLDSDGSFALVSKLTVDKSRWQQGNVFSCSVMHEALHNHYTQKSLSLSPG
# heavy 2: not shown
# light: GDIQMTQSPSSLSASVGDRVTITCSASQDIGNFLNWYQQKPGKTVKVLIYYTSSLYSGVPSRFSGSGSGTDYTLTISSLQPEDFATYYCQQYSKLPLTFGQGTKLELKRTVAAPSVFIFPPSDEQLKSGTASVVCLLNNFYPREAKVQWKVDNALQSGNSQESVTEQDSKDSTYSLSSTLTLSKADYEKHKVYACEVTHQGLSSPVTKSFNRGEC
# Legend:
# cynomolgus monkey NaPi2b = target: T1, cynomolgus monkey NaPi2b (cynomolgus monkey, UniProt O95436 1-690 (human entry)); experiment: flow cytometry on HEK293-6e cells transiently transfected with cynomolgus NaPi2b, antibody 18-24 h at 4 C, anti-human IgG Fc AF647
# T1 construct: also called Cyno NaPi2b; Cy NaPi2b
# T1 chain: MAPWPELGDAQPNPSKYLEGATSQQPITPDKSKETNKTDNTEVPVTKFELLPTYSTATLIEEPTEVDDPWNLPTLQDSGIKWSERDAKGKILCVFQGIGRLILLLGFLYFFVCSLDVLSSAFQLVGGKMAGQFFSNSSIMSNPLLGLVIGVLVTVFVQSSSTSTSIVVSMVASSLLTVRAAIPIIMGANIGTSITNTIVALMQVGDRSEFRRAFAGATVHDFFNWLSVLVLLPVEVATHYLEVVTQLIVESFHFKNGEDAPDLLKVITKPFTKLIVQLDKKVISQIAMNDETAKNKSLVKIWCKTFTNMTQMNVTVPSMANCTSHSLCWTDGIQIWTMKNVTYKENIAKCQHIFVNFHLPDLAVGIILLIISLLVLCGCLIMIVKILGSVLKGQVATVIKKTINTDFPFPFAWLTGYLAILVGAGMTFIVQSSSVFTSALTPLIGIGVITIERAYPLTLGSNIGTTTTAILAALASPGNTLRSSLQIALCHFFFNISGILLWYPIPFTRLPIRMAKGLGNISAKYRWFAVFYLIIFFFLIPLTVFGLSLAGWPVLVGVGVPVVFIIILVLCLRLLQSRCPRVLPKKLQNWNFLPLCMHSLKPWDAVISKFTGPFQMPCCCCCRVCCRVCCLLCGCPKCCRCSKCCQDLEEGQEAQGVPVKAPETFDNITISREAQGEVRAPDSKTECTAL
# [1] = target: T2, human sodium-dependent phosphate transporter 2B (NaPi2b) (human, UniProt O95436 1-690); experiment: cell-based or functional assay
# T2 sequence: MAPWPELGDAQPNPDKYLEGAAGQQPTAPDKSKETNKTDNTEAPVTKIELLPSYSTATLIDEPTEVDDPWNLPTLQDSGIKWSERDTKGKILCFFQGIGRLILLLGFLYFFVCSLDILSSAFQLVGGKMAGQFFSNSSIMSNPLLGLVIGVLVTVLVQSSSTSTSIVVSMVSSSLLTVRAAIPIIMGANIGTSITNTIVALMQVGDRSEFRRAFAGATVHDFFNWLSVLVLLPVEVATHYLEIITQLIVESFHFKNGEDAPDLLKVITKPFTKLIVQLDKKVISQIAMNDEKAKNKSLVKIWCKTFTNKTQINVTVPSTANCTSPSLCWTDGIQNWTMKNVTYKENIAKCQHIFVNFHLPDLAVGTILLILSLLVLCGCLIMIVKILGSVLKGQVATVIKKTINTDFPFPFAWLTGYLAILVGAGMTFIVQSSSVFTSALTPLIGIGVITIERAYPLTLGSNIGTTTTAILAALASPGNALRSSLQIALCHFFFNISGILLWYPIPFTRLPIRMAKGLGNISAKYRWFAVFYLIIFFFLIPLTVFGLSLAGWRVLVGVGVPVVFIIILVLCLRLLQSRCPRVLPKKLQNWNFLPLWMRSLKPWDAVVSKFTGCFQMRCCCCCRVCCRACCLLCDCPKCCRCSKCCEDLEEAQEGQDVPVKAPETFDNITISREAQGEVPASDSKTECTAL
# [2] = target: T2, human sodium-dependent phosphate …; experiment: flow cytometry on IGROV-1 cells (endogenous NaPi2b), 24 h at 4 C, anti-human IgG Fc AF647, APC-A GeoMean
# Method: Cells were maintained under standard culture conditions (37° C./5% CO₂) until assay set-up. […] Cells were removed from culture vessels using Cell Dissociation Buffer (Invitrogen, Waltham, MA), seeded at 50,000 cells/well in conical-bottom 96-well plates, and treated with test antibody or antibody-drug conjugate for 24 hours at 4° C. to prevent internalization. […] Following incubation and washing, fluorescence was detected by flow cytometry on a BD LSRFortessa™ Cell Analyzer (BD Biosciences, Franklin Lake, NJ) with 1,000 minimum events collected per well.
# [3] = target: T3, Construct 6 (NaPi2b del 317-333) (human, UniProt O95436 1-690); experiment: flow cytometry, HEK293-6e cells transfected with Construct 6
# T3 construct: Deletion construct on HEK293-6e cells; also called CL_#29919
# T3 sequence: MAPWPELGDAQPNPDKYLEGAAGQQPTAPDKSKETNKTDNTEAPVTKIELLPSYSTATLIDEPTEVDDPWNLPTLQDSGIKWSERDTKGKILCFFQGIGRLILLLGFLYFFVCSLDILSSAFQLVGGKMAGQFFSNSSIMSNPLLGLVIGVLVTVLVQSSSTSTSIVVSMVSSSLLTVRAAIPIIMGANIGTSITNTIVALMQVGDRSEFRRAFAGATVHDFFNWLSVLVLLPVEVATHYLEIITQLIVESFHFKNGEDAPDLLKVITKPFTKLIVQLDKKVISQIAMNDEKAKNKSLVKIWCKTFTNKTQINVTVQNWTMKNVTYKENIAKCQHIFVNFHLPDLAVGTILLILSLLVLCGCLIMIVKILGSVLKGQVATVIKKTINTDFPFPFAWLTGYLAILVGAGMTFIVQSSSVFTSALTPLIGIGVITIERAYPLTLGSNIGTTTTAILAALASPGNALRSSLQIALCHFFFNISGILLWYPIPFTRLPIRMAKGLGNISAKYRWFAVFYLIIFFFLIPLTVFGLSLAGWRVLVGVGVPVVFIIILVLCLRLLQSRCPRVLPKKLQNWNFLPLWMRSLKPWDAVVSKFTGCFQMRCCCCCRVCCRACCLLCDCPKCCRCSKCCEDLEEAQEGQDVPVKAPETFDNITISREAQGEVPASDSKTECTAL
# Method: Following transfection, cells were seeded at 50,000 cells/well in conical-bottom 96-well plates and treated with a serial dilution of test antibody for 24 hours at 4° C. to prevent internalization. Cells were treated with final concentrations of all humanized antibodies of 200, 20, or 2 nM. Cells were treated with final concentrations of the reference anti-NaPi2a rabbit antibody of 50, 5, or 0.5 nM. […] Following incubation and washing, fluorescence was detected by flow cytometry on a BD LSRFortessa™ Cell Analyzer (BD Biosciences, Franklin Lake, NJ) with 1,000 minimum events collected per well. […] Background-subtracted AF647 Mean Fluorescence Intensity (MFI) values were calculated by subtracting the average MFI of three technical replicates of unstained (no primary antibody) cells.
binder,measurement,setting,value
B1,binding result,cynomolgus monkey NaPi2b,no binding (tested: 200 nM)
same,"Internalized Fluorescence Fold-Over Palivizumab, HCC-78, 5 hrs, 10 nM",[1],1 fold
same,"Internalized Fluorescence Fold-Over Palivizumab, HCC-78, 24 hrs, 10 nM",[1],1 fold
same,"Internalized Fluorescence Fold-Over Palivizumab, NCI-H441, 5 hrs, 10 nM",[1],1 fold
same,"Internalized Fluorescence Fold-Over Palivizumab, NCI-H441, 24 hrs, 10 nM",[1],1 fold
B2,EC50 (read off the curve),[2],~2 nM
B3,binding result,[3],no binding (tested: 200 nM)
